This passage reports ECL signal results from patent publication US20120316071A1 (published 2012).

The target in assay [1] is T1, rHuman EGF R/Fc Chimera, CF (R&D Systems Cat#344-ER) (human, UniProt P00533 25-645).
T1 construct: Bought recombinant Fc chimera; also called epidermal growth factor receptor; Fc part of the bought chimera not given
Put plainly: ECL multispot (MSD) assay, antigen spotted on plate, 10 nM Fab.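 Further: bound Fab detected with a TAG-labelled detection antibody (1 h, 20 °C), electrochemiluminescence read and compared with each well's blank, signal/blank of 4 or above scored as hit.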

The target of assay [2] is T2, rHuman IGF-1 sR, CF (R&D Systems Cat#391-GR) (human, UniProt P08069 31-932).
T2 construct: Bought soluble receptor; also called insulin-like growth factor-1 soluble receptor
Described as above.

Assay [3] concerns the target T3, Recombinant Human DLL4 (R&D Systems Cat#1506-D4/CF) (human, UniProt Q9NR61 27-524).
T3 construct: Bought recombinant protein; also called delta-like protein 4; rHuman DLL4
The assay is described as above.

In assay [4] the target is T4, rHuman CD44/Fc Chimera, CF (R&D Systems Cat#3660-CD) (human, UniProt P16070 21-220).
T4 construct: Bought recombinant Fc chimera; Fc part of the bought chimera not given
The assay is described as above.

Assay [5] concerns the target T5, rHuman HGF R/c-MET/Fc Chimera, CF (R&D Systems Cat#358-MT/CF) (human, UniProt P08581 25-932).
T5 construct: Bought recombinant Fc chimera; also called HGF R/Fc; hepatocyte growth factor receptor; Fc part of the bought chimera not given
The description is as above.

Assay [6] addresses T6, rHuman Notch-1/Fc Chimera, CF (R&D Systems Cat#3647-TK) (human, UniProt P46531 19-526).
T6 construct: Bought recombinant Fc chimera; Fc part of the bought chimera not given
The description is as above.

The target in assay [7] is T7, rHuman Erythropoietin R/Fc Chimera, CF (R&D Systems Cat#963-ER) (human, UniProt P19235 25-250).
T7 construct: Bought recombinant Fc chimera; also called EPO R; EPO R/Fc; Fc part of the bought chimera not given
T7 sequence (looked up): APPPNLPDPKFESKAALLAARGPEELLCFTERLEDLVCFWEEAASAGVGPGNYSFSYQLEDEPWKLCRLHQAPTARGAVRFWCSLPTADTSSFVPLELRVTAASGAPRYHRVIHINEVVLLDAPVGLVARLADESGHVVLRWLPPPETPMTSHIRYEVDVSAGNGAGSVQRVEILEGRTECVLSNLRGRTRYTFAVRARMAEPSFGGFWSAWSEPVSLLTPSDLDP
Described as above.

Assay [8] addresses T8, rHuman ErbB2/Fc Chimera, CF (R&D Systems Cat#1129-ER) (human, UniProt P04626 23-652).
T8 construct: Bought recombinant Fc chimera; also called human epidermal growth factor 2 receptor; Fc part of the bought chimera not given
The description is as above.

The target in assay [9] is T9, rHuman P-Cadherin/Fc Chimera, CF (R&D Systems Cat#861-PC) (human, UniProt P22223 108-654).
T9 construct: Bought recombinant Fc chimera; Fc part of the bought chimera not given
Described as above.

The target in assay [10] is T10, rHuman HGF R/c-MET/Fc Chimera, CF (human, UniProt P08581 25-932).
T10 construct: Bought from R&D Systems; also called HGF R/Fc; hepatocyte growth factor receptor; not shown: Fc of the bought chimera
Put plainly: ECL Multispot (MSD) assay; antigen spotted on plate, Fab in solution.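 Further: fab bound 1 h at 20 °C, detected by TAG-labelled antibody electrochemiluminescence, signal relative to each well's blank, ratio of 4 or more marks a hit.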

Assay [11] has as its target T11, rHuman EGF R/Fc Chimera, CF (human, UniProt P00533 25-645).
T11 construct: Bought from R&D Systems; also called epidermal growth factor receptor; not shown: Fc of the bought chimera
Described as above.

Assay [12] concerns the target T12, rHuman Erythropoietin R/Fc Chimera, CF (human, UniProt P19235 25-250).
T12 construct: Bought from R&D Systems; also called EPO R; EPO R/Fc; not shown: Fc of the bought chimera
T12 sequence (looked up): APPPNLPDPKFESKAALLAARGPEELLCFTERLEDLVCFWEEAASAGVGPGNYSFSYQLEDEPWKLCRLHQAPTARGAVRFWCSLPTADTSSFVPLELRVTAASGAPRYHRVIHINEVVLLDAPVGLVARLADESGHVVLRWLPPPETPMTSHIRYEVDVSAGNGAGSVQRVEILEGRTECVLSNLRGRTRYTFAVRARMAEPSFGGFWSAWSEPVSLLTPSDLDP
Described as above.

Assay [13] concerns the target T13, rHuman ErbB2/Fc Chimera, CF (human, UniProt P04626 23-652).
T13 construct: Bought from R&D Systems; also called human epidermal growth factor 2 receptor; not shown: Fc of the bought chimera
The description is as above.

Assay [14] concerns the target T14, rHuman P-Cadherin/Fc Chimera, CF (human, UniProt P22223 108-654).
T14 construct: Bought from R&D Systems; not shown: Fc of the bought chimera
Described as above.

Assay [15] deals with T15, rHuman CD44/Fc Chimera, CF (human, UniProt P16070 21-220).
T15 construct: Bought from R&D Systems; not shown: Fc of the bought chimera
The description is as above.

For assay [16], the target named is T16, rHuman Notch-1/Fc Chimera, CF (human, UniProt P46531 19-526).
T16 construct: Bought from R&D Systems; not shown: Fc of the bought chimera
Described as above.

The target in a further assay is T17, Recombinant Human DLL4 (human, UniProt Q9NR61 27-524).
T17 construct: Bought from R&D Systems; also called delta-like protein 4; rHuman DLL4
Described as above.

The target in assay [17] is T18, rHuman IGF-1 sR, (IGF-1 sR), CF (human, UniProt P08069 31-932).
T18 construct: Bought from R&D Systems; also called insulin-like growth factor-1 soluble receptor
The assay is described as above.

T10 sequence (P08581 25-932, change not shown): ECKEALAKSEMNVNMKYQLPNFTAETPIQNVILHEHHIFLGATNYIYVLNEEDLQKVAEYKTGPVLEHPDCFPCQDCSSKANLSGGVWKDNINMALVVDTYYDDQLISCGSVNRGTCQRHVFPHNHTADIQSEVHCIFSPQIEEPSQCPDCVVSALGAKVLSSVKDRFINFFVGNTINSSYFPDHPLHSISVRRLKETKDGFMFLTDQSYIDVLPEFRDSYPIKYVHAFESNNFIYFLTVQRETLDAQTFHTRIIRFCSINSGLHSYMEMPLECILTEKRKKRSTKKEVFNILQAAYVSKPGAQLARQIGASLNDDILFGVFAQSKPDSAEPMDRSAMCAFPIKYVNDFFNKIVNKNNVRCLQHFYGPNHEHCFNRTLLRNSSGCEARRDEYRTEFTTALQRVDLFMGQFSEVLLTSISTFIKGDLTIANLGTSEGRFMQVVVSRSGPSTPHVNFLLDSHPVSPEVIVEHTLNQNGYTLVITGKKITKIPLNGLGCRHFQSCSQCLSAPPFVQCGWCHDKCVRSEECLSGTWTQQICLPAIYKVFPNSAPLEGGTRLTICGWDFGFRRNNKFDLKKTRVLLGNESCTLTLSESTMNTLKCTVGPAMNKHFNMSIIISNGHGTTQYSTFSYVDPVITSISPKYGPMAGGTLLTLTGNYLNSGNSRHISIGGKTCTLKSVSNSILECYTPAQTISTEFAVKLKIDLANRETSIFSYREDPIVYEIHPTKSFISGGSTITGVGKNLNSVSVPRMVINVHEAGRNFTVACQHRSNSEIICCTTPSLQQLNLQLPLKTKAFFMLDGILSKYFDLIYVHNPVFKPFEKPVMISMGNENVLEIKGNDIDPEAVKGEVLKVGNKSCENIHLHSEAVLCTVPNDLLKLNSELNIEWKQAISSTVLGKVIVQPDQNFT
T5 sequence (P08581 25-932, change not shown): as above

B1: Fab VH1-46_IGHD6-6*01_IGHJ1*01 S102A/S103P/S104F/H111F T58A & L6_IGKJ1*01 (Fab, V domains shown)
VH: QVQLVQSGAEVKKPGASVKVSCKASGYTFTSYYMHWVRQAPGQGLEWMGIINPSGGSASYAQKFQGRVTMTRDTSTSTVYMELSSLRSEDTAVYYCAREEYAPFSAEYFQFWGQGTLVTVSS
VL: not shown
notes: Fab (CH1 with His6/Flag tags from Plasmid A, kappa CL from Plasmid C); also called APFF T58A
Regarding B1, the ECL signal turned out to be 384 in [1]; 271 in assay [2]; 47400 in [3]; 318 in assay [4]; 304 in [5]; 289 in assay [6]. Further, the figures for the ECL signal in assay [7], in [8] and in [9] were 329, 320 and 294, respectively.

B2: Fab VH1-46_IGHD6-6*01_IGHJ1*01 S102A/S103P/S104F/H111F (APFF) & L6_IGKJ1*01 S28G (Fab, V domains shown)
VH: QVQLVQSGAEVKKPGASVKVSCKASGYTFTSYYMHWVRQAPGQGLEWMGIINPSGGSTSYAQKFQGRVTMTRDTSTSTVYMELSSLRSEDTAVYYCAREEYAPFSAEYFQFWGQGTLVTVSS
VL: EIVLTQSPATLSLSPGERATLSCRASQGVSSYLAWYQQKPGQAPRLLIYDASNRATGIPARFSGSGSGTDFTLTISSLEPEDFAVYYCQQRSNWPPWTFGQGTKVEIKR
notes: Fab made in E. coli; the variable domains were cloned into Plasmid A (CH1, His and Flag tags) and Plasmid C (kappa CL); also called APFF / S28G
Take B2: the ECL signal in [10] worked out at 333; in assay [11], 360; in assay [12], 494; in assay [13], 334; in assay [14], 491; in assay [15], 436. Besides, the ECL signal in assay [16] was 324; with Recombinant Human DLL4, 183000; in assay [17], 360.

B3: Fab VH1-46_IGHD6-6*01_IGHJ1*01 S102A/S103P/S104F/H111F (APFF) & L6_IGKJ1*01 (Fab, V domains shown)
VH: QVQLVQSGAEVKKPGASVKVSCKASGYTFTSYYMHWVRQAPGQGLEWMGIINPSGGSTSYAQKFQGRVTMTRDTSTSTVYMELSSLRSEDTAVYYCAREEYAPFSAEYFQFWGQGTLVTVSS
VL: not shown
notes: Fab made in E. coli; the variable domains were cloned into Plasmid A (CH1, His and Flag tags) and Plasmid C (kappa CL); also called APFF / parent; H:APFF & L:wt
Regarding B3, the ECL signal in assay [10] is 432; in [11], 406; in [13], 333; in assay [14], 368; in the assay with Recombinant Human DLL4, 182000; in assay [17], 386.

B4: Fab VH1-46_IGHD6-6*01_IGHJ1*01 S102A/S103P/S104F/H111F (APFF) & L6_IGKJ1*01 S28K (Fab, V domains shown)
VH: QVQLVQSGAEVKKPGASVKVSCKASGYTFTSYYMHWVRQAPGQGLEWMGIINPSGGSTSYAQKFQGRVTMTRDTSTSTVYMELSSLRSEDTAVYYCAREEYAPFSAEYFQFWGQGTLVTVSS
VL: EIVLTQSPATLSLSPGERATLSCRASQKVSSYLAWYQQKPGQAPRLLIYDASNRATGIPARFSGSGSGTDFTLTISSLEPEDFAVYYCQQRSNWPPWTFGQGTKVEIKR
notes: Fab made in E. coli; the variable domains were cloned into Plasmid A (CH1, His and Flag tags) and Plasmid C (kappa CL); also called APFF / S28K
In the case of B4, the ECL signal is 355 in assay [10]; 386 in assay [11]; 477 in assay [12]; 270 in [13]; 443 in [14]; 464 in [15]. In addition, the ECL signal in assay [16] is 395; in the assay with Recombinant Human DLL4, 124000; in assay [17] it was 348.

B5: Fab VH1-46_IGHD6-6*01_IGHJ1*01 S102A/S103P/S104F/H111F (APFF) & L6_IGKJ1*01 S28P (Fab, V domains shown)
VH: QVQLVQSGAEVKKPGASVKVSCKASGYTFTSYYMHWVRQAPGQGLEWMGIINPSGGSTSYAQKFQGRVTMTRDTSTSTVYMELSSLRSEDTAVYYCAREEYAPFSAEYFQFWGQGTLVTVSS
VL: EIVLTQSPATLSLSPGERATLSCRASQPVSSYLAWYQQKPGQAPRLLIYDASNRATGIPARFSGSGSGTDFTLTISSLEPEDFAVYYCQQRSNWPPWTFGQGTKVEIKR
notes: Fab made in E. coli; the variable domains were cloned into Plasmid A (CH1, His and Flag tags) and Plasmid C (kappa CL); also called APFF / S28P
As to B5, the ECL signal in [10] turned out to be 318; in assay [11] it was 370; in [12], 492; in [13], 427; in [14], 605; in assay [15] it was 365. The ECL signal in [16] was 416; in the assay with Recombinant Human DLL4, 178000; in assay [17], 392.

B6: Fab VH1-46_IGHD6-6*01_IGHJ1*01 S102A/S103P/S104F/H111F (APFF) & L6_IGKJ1*01 S28L (Fab, V domains shown)
VH: QVQLVQSGAEVKKPGASVKVSCKASGYTFTSYYMHWVRQAPGQGLEWMGIINPSGGSTSYAQKFQGRVTMTRDTSTSTVYMELSSLRSEDTAVYYCAREEYAPFSAEYFQFWGQGTLVTVSS
VL: EIVLTQSPATLSLSPGERATLSCRASQLVSSYLAWYQQKPGQAPRLLIYDASNRATGIPARFSGSGSGTDFTLTISSLEPEDFAVYYCQQRSNWPPWTFGQGTKVEIKR
notes: Fab made in E. coli; the variable domains were cloned into Plasmid A (CH1, His and Flag tags) and Plasmid C (kappa CL); also called APFF / S28L
For B6, the ECL signal in assay [10] came to 317; in [11], 378; in assay [12] it was 404; in assay [13], 222; in assay [14], 418; in assay [15], 365. Besides, the ECL signal in [16] turned out to be 392; with Recombinant Human DLL4, 72300; in [17], 346.

B7: Fab VH1-46_IGHD6-6*01_IGHJ1*01 S102A/S103P/S104F/H111F (APFF) & L6_IGKJ1*01 S28A (Fab, V domains shown)
VH: QVQLVQSGAEVKKPGASVKVSCKASGYTFTSYYMHWVRQAPGQGLEWMGIINPSGGSTSYAQKFQGRVTMTRDTSTSTVYMELSSLRSEDTAVYYCAREEYAPFSAEYFQFWGQGTLVTVSS
VL: EIVLTQSPATLSLSPGERATLSCRASQAVSSYLAWYQQKPGQAPRLLIYDASNRATGIPARFSGSGSGTDFTLTISSLEPEDFAVYYCQQRSNWPPWTFGQGTKVEIKR
notes: Fab made in E. coli; the variable domains were cloned into Plasmid A (CH1, His and Flag tags) and Plasmid C (kappa CL); also called APFF / S28A
B7: the ECL signal in assay [10] worked out at 377; in assay [11], 351; in assay [12], 424; in assay [13], 348; in assay [14] it was 521; in [15], 502. Besides, the results for the ECL signal (in [16]; in the assay with Recombinant Human DLL4; in assay [17]) were 440, 157000 and 378, respectively.

B8: Fab VH1-46_IGHD6-6*01_IGHJ1*01 S102A/S103P/S104F/H111F (APFF) & L6_IGKJ1*01 S28F (Fab, V domains shown)
VH: QVQLVQSGAEVKKPGASVKVSCKASGYTFTSYYMHWVRQAPGQGLEWMGIINPSGGSTSYAQKFQGRVTMTRDTSTSTVYMELSSLRSEDTAVYYCAREEYAPFSAEYFQFWGQGTLVTVSS
VL: EIVLTQSPATLSLSPGERATLSCRASQFVSSYLAWYQQKPGQAPRLLIYDASNRATGIPARFSGSGSGTDFTLTISSLEPEDFAVYYCQQRSNWPPWTFGQGTKVEIKR
notes: Fab made in E. coli; the variable domains were cloned into Plasmid A (CH1, His and Flag tags) and Plasmid C (kappa CL); also called APFF / S28F
For the molecule B8, the ECL signal in [10] turned out to be 223; in [11], 283; in assay [12] it was 413; in assay [13], 242; in [14], 336; in assay [15], 402. Further, the figures for the ECL signal (in assay [16]; with Recombinant Human DLL4; in [17]) were 367, 134000 and 275, respectively.
